Laboratory results from PMC4764573, “A deep proteomics perspective on CRM1-mediated nuclear export and nucleocytoplasmic partitioning” (eLife, 2015).

Biological target: mmCRM1 (mouse CRM1), in solution in the direct binding assay (mouse, UniProt Q6P5F9 1-1071)
Experiment: pull-down; 250 pmoles His14-ZZ-bdSUMO tagged candidate on 20 μl anti-ZZ beads; 300 pmoles mmCRM1 with or without 1500 pmoles RanGTP (hsRanQ69L^5-180) in 500 µl; 3 hr at 4°C; elution by bdSENP1 protease; SDS-PAGE and Coomassie-staining
Details: both partners purified

Chain of mmCRM1 (mouse CRM1), in solution in the direct binding assay (Q6P5F9 whole entry): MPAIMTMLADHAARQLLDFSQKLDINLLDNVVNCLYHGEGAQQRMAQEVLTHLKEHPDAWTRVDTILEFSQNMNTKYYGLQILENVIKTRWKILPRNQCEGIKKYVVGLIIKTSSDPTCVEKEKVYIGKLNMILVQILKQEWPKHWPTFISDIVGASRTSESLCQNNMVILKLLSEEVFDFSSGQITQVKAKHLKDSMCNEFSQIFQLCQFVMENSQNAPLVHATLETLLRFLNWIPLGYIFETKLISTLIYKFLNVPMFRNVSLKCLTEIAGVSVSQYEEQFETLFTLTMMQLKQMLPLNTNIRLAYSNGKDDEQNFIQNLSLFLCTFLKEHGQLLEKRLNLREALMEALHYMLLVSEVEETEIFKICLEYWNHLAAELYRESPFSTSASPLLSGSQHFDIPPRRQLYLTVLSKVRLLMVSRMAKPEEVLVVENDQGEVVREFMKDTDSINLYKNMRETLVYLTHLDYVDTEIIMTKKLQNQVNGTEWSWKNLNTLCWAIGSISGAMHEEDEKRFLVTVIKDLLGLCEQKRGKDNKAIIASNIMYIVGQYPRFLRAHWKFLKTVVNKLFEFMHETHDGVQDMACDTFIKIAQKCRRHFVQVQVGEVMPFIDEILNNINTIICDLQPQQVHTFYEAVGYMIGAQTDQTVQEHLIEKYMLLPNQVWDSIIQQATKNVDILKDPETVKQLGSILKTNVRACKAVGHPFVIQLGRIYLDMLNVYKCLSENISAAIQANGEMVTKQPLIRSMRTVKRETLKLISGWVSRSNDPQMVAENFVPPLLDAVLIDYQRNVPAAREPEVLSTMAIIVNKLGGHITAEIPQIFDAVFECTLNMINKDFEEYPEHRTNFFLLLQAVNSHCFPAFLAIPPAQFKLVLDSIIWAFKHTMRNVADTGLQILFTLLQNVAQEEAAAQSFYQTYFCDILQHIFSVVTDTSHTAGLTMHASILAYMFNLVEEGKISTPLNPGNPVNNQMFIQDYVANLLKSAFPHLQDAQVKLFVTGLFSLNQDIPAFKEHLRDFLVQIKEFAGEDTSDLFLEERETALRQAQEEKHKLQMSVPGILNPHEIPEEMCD

binding result: binds
B1: H14-ZZ-Sumo tagged ARP2/3 1b (natural protein)
chain: not shown
notes: subunit 1b of the ARP2/3 complex, Xenopus; see Supplementary file 6; also called subunit 1b of the ARP2/3 complex; source: E. coli, purified (Ni2+ chelate chromatography, imidazole elution)
